Experimental data: the RNAGym collection of RNA variant scans (doi:10.7554/elife.80360)

B1: Hairpin Ribozyme (parent)
chain: GUCCUCUUUCACGUGCGCGUGAAAGAGAGAAGUGAACCAGAGAAACACACGUUGUGGUAUAUUACCUGGUA

Variants of: B1
Test: self-cleavage, relative activity (ratio to wild type); higher = more cleavage; co-transcriptional

| Variant | self-cleavage |
| --- | --- |
| G19A C38A | 0.153 |
| C3A G40A | 0.23 |
| G19C A45U | 0.142 |
| U8G U52G | 0.621 |
| G21A G68U | 0.165 |
| A23C G69U | 0.297 |
| A24G A45U | 0.145 |
| A31C G40U | 0.0621 |
| A26C C37A | 0.156 |
| A39C U55G | 0.205 |
| C3A G51U | 0.792 |
| G27U A45G | 0.131 |
| A11G G32A | 0.0907 |
| G13A G42C | 0.302 |
| G19C A30C | 0.221 |
| A47C A64C | 0.233 |
| A47C A64G | 0.265 |
| U8G U70G | 0.608 |
| A23G A71C | 1.37 |
| A22G G27U | 0.262 |
| C6G C38U | 0.332 |
| G15A U53C | 0.907 |
| U8C G32A | 0.198 |
| C4U U67C | 0.128 |

| Variant | self-cleavage |
| --- | --- |
| G57C U58G | 0.277 |
| A45G G68C | 0.136 |
| C50G G68A | 0.132 |
| G19C G56C | 0.124 |
| A22C U67G | 0.204 |
| G1A G69U | 0.235 |
| A30U A45U | 0.129 |
| A39G U63G | 0.147 |
| G29C G32A | 0.167 |
| G13C C37U | 0.508 |
| C46U U60G | 0.223 |
| U53C U63C | 0.0362 |
| U14C A44G | 0.155 |
| A30C A36G | 0.223 |
| U7A G19A | 0.845 |
| A36G G69U | 0.237 |
| C12A U62A | 0.168 |
| A26C C65U | 0.256 |
| A31U G54U | 0.0633 |
| C65G G69C | 0.219 |
| C16G G17C | 0.717 |
| C12U G40A | 0.358 |
| G32C | 0.127 |
| G21C G29A | 0.0976 |

| Variant | self-cleavage |
| --- | --- |
| A24G G29C | 0.174 |
| G25U G54C | 0.241 |
| C3U G57A | 0.0631 |
| A31C G54C | 0.198 |
| G1U C65G | 0.236 |
| U8G U63C | 0.155 |
| U8G U63G | 0.172 |
| U5C G42A | 0.133 |
| U7A U33G | 0.0989 |
| U2G U53A | 0.195 |
| U8G C12U | 0.447 |
| A11U A47G | 0.247 |
| A11U G17A | 0.751 |
| U2G A30U | 0.117 |
| C6A G19A | 0.599 |
| G29U U67A | 0.0852 |
| A24C U60G | 0.609 |
| G15C U52G | 0.812 |
| G19C A47C | 0.207 |
| A24U A59G | 0.183 |
| C10A C65U | 0.274 |
| A45C A71C | 0.453 |
| G29A A30U | 0.0939 |
| G1U U60G | 0.259 |

| Variant | self-cleavage |
| --- | --- |
| C4G G54C | 0.139 |
| U9A G42U | 0.253 |
| G17C U52G | 0.821 |
| U33G A47C | 0.0542 |
| A45U A47G | 0.178 |
| A36U U62C | 0.185 |
| C38A A39C | 0.0755 |
| U20A U33G | 0.183 |
| A28G U58A | 0.653 |
| A39U G68C | 0.0955 |
| U2C G19A | 0.149 |
| G54A U70A | 0.409 |
| C4G A24G | 0.256 |
| C18G G29C | 0.133 |
| C3G A35G | 0.291 |
| C12G C46U | 0.191 |
| C12A U14G | 0.566 |
| U5C U70G | 0.664 |
| G32C U33A | 0.168 |
| C37U A43G | 0.146 |
| A28G U53G | 1.13 |
| C3A U20A | 0.582 |
| U8C G51C | 0.701 |
| A11U C50A | 0.153 |

| Variant | self-cleavage |
| --- | --- |
| G17A A35G | 1.2 |
| C38G A61G | 0.166 |
| C12U C16A | 0.735 |
| U7G G25A | 0.316 |
| A30G U62C | 0.13 |
| C50G U70A | 0.178 |
| G34A U52G | 1.09 |
| U2A C46U | 0.0639 |
| U9G G42U | 0.364 |
| A28C A71U | 0.291 |
| G29U A39C | 0.174 |
| A11G U62C | 0.146 |
| A26U U62G | 0.141 |
| G13A C50G | 0.316 |
| C37U C46G | 0.13 |
| U2C A39G | 0.0933 |
| A11G C18A | 0.795 |
| U55C U63C | 0.233 |
| A22U A35C | 0.762 |
| C46A U67G | 0.142 |
| U9G G56U | 0.124 |
| C65A G69U | 0.235 |
| C38U U58G | 0.447 |
| U20G C38G | 0.119 |

| Variant | self-cleavage |
| --- | --- |
| A35C U58G | 0.954 |
| G56A C65G | 0.214 |
| U2G A61C | 0.109 |
| C4U A31C | 0.193 |
| U8C C65G | 0.143 |
| A35U G40U | 0.134 |
| C48A C66U | 0.202 |
| G32U U52A | 0.155 |
| G21C U55C | 0.204 |
| U7G C38G | 0.0992 |
| G51A U62G | 0.262 |
| C38U A39G | 0.3 |
| A36C A43U | 0.126 |
| C18U G69A | 0.476 |
| A31G G57A | 0.0901 |
| U5A A44C | 0.156 |
| G25U A39C | 0.336 |
| U9C U62G | 0.199 |
| G21U U33G | 0.127 |
| G29C C48U | 0.203 |
| A44G G54U | 0.16 |
| G19C G51U | 0.973 |
| A30G A31U | 0.125 |
| A31C C48G | 0.103 |

| Variant | self-cleavage |
| --- | --- |
| A24C G56C | 0.115 |
| C4U A43U | 0.202 |
| G19A U63A | 0.104 |
| U7C G40A | 0.334 |
| U8G A61U | 0.184 |
| C16A A47G | 0.197 |
| G21U A49U | 0.189 |
| A61C U62G | 0.102 |
| A43U C48G | 0.166 |
| U14G A44C | 0.218 |
| A22G U58A | 0.657 |
| C18A G51U | 1.12 |
| G34A U62A | 0.315 |
| U60C U63A | 0.262 |
| A36U G51U | 0.648 |
| A59U C65G | 0.218 |
| U55C U67C | 0.172 |
| A24U U33C | 0.0916 |
| A22C A35U | 0.746 |
| G17C A41U | 1.27 |
| G13U A43C | 0.147 |
| A22G U55G | 0.33 |
| A26G A28U | 0.491 |
